The data set addresses MiaA C273A (Shigella flexneri, UniProt P59197 1-316, C273A). Kind of data set: EMSA (2% agarose); 10 mM Mg2+; 100 uM 10-F05; binding only slightly decreased, largely unaffected. The following applies: protein: recombinant; tags: N-terminal His-tag (pET28a); label: none (GelRed stain); predicted two hairpin loops.

This is an account of results in article PMC11995724.

For GUUCAAUUGGUAGAGCACCGGUCUCCAAAACCGG (structured_RNA) [tRNATrp_34-base], the binding result was “binds”.
